In publication PMC7157757, “A Novel Combined Scientific and Artistic Approach for the Advanced Characterization of Interactomes: The Akirin/Subolesin Model” (Vaccines, 2020):

Biological target: the molecule itself
Assay: SEC; HiPrep 16/60 Sephacryl S-100 HR; proteins incubated in PBS overnight at 4 °C before dilution in column buffer (50 mM sodium phosphate, 150 mM sodium chloride, pH 7.2); 0.8 mL/min; monomer and dimer

B1: Recombinant I. scapularis AKR/SUB (natural protein)
chain: not shown
notes: Akirin/Subolesin (AKR/SUB), Ixodes scapularis, Q4VRW2; also called Subolesin; tick SUB; source: Escherichia coli, Champion pET101 Directional TOPO Expression kit, as previously described [34,35]
  stoichiometry N: 2
